Reference: US12097241B2, “Methods of treating kidney failure, and/or improving or stablizing renal function using modified relaxin polypeptides” (BRISTOL-MYERS SQUIBB COMPANY, priority 2017, dated 2024)
Read-outs that look alike come from different tables or passages of the source.

Columns and labels:
[1] = molecular target: T1, human RXFP1 receptor (Homo sapiens, UniProt Q9HBX9); experiment: Intracellular cAMP accumulation assay; type: cell-based
T1 construct: expressed in transfected cells
T1 sequence (Q9HBX9 1-757): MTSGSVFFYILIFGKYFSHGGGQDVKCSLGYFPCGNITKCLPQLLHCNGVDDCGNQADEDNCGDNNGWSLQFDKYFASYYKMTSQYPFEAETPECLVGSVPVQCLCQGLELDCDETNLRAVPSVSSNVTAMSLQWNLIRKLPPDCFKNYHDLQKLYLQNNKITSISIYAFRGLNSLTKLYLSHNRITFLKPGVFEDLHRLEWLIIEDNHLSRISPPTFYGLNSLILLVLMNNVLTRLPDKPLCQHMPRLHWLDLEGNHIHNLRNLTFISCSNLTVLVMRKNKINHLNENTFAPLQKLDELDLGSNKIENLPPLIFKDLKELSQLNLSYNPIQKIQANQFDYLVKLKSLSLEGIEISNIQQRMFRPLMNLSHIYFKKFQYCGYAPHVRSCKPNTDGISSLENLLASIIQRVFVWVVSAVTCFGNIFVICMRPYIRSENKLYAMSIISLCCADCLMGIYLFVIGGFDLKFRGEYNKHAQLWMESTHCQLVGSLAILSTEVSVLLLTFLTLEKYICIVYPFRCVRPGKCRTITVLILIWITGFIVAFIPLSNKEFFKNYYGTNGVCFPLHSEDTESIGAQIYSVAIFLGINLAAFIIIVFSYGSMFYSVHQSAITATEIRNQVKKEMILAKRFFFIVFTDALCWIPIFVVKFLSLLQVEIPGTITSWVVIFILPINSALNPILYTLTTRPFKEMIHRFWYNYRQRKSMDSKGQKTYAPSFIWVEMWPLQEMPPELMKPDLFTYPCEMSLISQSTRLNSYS

[2] = In vivo pharmacokinetic (PK) studies in rats; design: species or system Sprague-Dawley rats; settings: rat, male Sprague-Dawley rats, single SC dose 1.0 mg/kg, serum ELISA; for AUC(0-inf): read-out: Rat PK AUC Total; for level at time molar at 24 h: read-out: Rat PK C24
In short: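 Male Sprague-Dawley rats (n=3) given a single 1 mg/kg IV or SC dose of relaxin constructs in 20 mM histidine, 750 mM NaCl, pH 6.0; jugular serum sampled to 72 h. Serum relaxin by ELISA; Cmax, AUCinf, C24 and half-life from non-compartmental analysis of individual profiles.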

[3] = CHO-K1 cells stably expressing human RXFP1, 10 min at 37° C., HTRF cAMP, average, read-out: hRXFP1/CHO-K1 cAMP EC50 (nM, avg)

Structure (SMILES)	EC50 [1, 3]	AUC(0-inf) [2]	level at time molar at 24 h [2]	EC50 [1]
CC[C@H](C)[C@@H]1NC(=O)[C@H](C)NC(=O)[C@H]([C@@H](C)CC)NC(=O)[C@H](CCC(N)=O)NC(=O)[C@H](C)NC(=O)[C@H](CCCNC(=N)N)NC(=O)[C@H](C(C)C)NC(=O)[C@H](CC(C)C)NC(=O)[C@H](CCC(=O)O)NC(=O)[C@H](CCCNC(=N)N)NC(=O)CNC(=O)[C@@H](NC(=O)[C@H](CC(C)C)NC(=O)[C@H](CCCCN)NC(=O)[C@@H](NC(=O)[C@@H](NC(=O)[C@H](CCC(=O)O)NC(=O)[C@H](CCC(=O)O)NC(=O)[C@H](CCSC)NC(=O)[C@H](Cc2c[nH]c3ccccc23)NC(=O)[C@H](CO)NC(=O)[C@H](C)N)C(C)C)[C@@H](C)CC)CSSC[C@@H]2NC(=O)[C@@H](NC(=O)[C@H](CCCCN)NC(=O)[C@H](CC(N)=O)NC(=O)[C@H](C)NC(=O)[C@H](CC(C)C)NC(=O)[C@H](C)NC(=O)[C@H](CO)NC(=O)[C@H](Cc3ccc(O)cc3)NC(=O)[C@H](CC(C)C)NC(=O)[C@@H](N)Cc3ccc(C(C)=NOCCNC(=O)[C@H](CCCCN)NC(=O)[C@H](CCCCN)NC(=O)[C@H](CCCCN)NC(=O)CNC(=O)CNC(=O)CNC(=O)CC[C@H](NC(=O)CCCCCCCCCCCCC(=O)O)C(=O)O)cc3)CSSC[C@H](NC(=O)CNC(=O)[C@H](C(C)C)NC(=O)[C@H](Cc3c[nH]cn3)NC2=O)C(=O)N[C@@H]([C@@H](C)O)C(=O)N[C@@H](CCCCN)C(=O)N[C@@H](CCCNC(=N)N)C(=O)N[C@@H](CO)C(=O)N[C@@H](CC(C)C)C(=O)N[C@@H](C)C(=O)N[C@@H](CCCNC(=N)N)C(=O)N[C@@H](Cc2ccccc2)C(=O)N[C@H](C(=O)O)CSSC[C@@H](C(=O)NCC(=O)N[C@@H](CCSC)C(=O)N[C@@H](CO)C(=O)N[C@H](C(=O)N[C@@H](Cc2c[nH]c3ccccc23)C(=O)N[C@@H](CO)C(=O)O)[C@@H](C)O)NC1=O [AQ1-KKKGGG-Glu^γ-C13-COOH]	0.09 nM	0.258 µM·h	0.24 nM	–
CC[C@H](C)[C@@H]1NC(=O)[C@H](C)NC(=O)[C@H]([C@@H](C)CC)NC(=O)[C@H](CCC(N)=O)NC(=O)[C@H](C)NC(=O)[C@H](CCCNC(=N)N)NC(=O)[C@H](C(C)C)NC(=O)[C@H](CC(C)C)NC(=O)[C@H](CCC(=O)O)NC(=O)[C@H](CCCNC(=N)N)NC(=O)CNC(=O)[C@@H](NC(=O)[C@H](CC(C)C)NC(=O)[C@H](CCCCN)NC(=O)[C@@H](NC(=O)[C@@H](NC(=O)[C@H](CCC(=O)O)NC(=O)[C@H](CCC(=O)O)NC(=O)[C@H](CCSC)NC(=O)[C@H](Cc2c[nH]c3ccccc23)NC(=O)[C@H](CO)NC(=O)[C@H](C)N)C(C)C)[C@@H](C)CC)CSSC[C@@H]2NC(=O)[C@@H](NC(=O)[C@H](CCCCN)NC(=O)[C@H](CC(N)=O)NC(=O)[C@H](C)NC(=O)[C@H](CC(C)C)NC(=O)[C@H](C)NC(=O)[C@H](CO)NC(=O)[C@H](Cc3ccc(O)cc3)NC(=O)[C@H](CC(C)C)NC(=O)[C@@H](N)Cc3ccc(C(C)=NOCCNC(=O)[C@H](CCCCN)NC(=O)[C@H](CCCCN)NC(=O)[C@H](CCCCN)NC(=O)[C@H](CO)NC(=O)CNC(=O)CNC(=O)[C@H](CO)NC(=O)CNC(=O)CNC(=O)CC[C@H](NC(=O)CCCCCCCCCCCCC(=O)O)C(=O)O)cc3)CSSC[C@H](NC(=O)CNC(=O)[C@H](C(C)C)NC(=O)[C@H](Cc3c[nH]cn3)NC2=O)C(=O)N[C@@H]([C@@H](C)O)C(=O)N[C@@H](CCCCN)C(=O)N[C@@H](CCCNC(=N)N)C(=O)N[C@@H](CO)C(=O)N[C@@H](CC(C)C)C(=O)N[C@@H](C)C(=O)N[C@@H](CCCNC(=N)N)C(=O)N[C@@H](Cc2ccccc2)C(=O)N[C@H](C(=O)O)CSSC[C@@H](C(=O)NCC(=O)N[C@@H](CCSC)C(=O)N[C@@H](CO)C(=O)N[C@H](C(=O)N[C@@H](Cc2c[nH]c3ccccc23)C(=O)N[C@@H](CO)C(=O)O)[C@@H](C)O)NC1=O [AQ1-KKKSGGSGG-Glu^γ-C13-COOH]	–	0.264 µM·h	0.21 nM	0.14 nM
CC[C@H](C)[C@@H]1NC(=O)[C@H](C)NC(=O)[C@H]([C@@H](C)CC)NC(=O)[C@H](CCC(N)=O)NC(=O)[C@H](C)NC(=O)[C@H](CCCNC(=N)N)NC(=O)[C@H](C(C)C)NC(=O)[C@H](CC(C)C)NC(=O)[C@H](CCC(=O)O)NC(=O)[C@H](CCCNC(=N)N)NC(=O)CNC(=O)[C@@H](NC(=O)[C@H](CC(C)C)NC(=O)[C@H](CCCCN)NC(=O)[C@@H](NC(=O)[C@@H](NC(=O)[C@H](CCC(=O)O)NC(=O)[C@H](CCC(=O)O)NC(=O)[C@H](CCSC)NC(=O)[C@H](Cc2c[nH]c3ccccc23)NC(=O)[C@H](CO)NC(=O)[C@H](C)N)C(C)C)[C@@H](C)CC)CSSC[C@@H]2NC(=O)[C@@H](NC(=O)[C@H](CCCCN)NC(=O)[C@H](CC(N)=O)NC(=O)[C@H](C)NC(=O)[C@H](CC(C)C)NC(=O)[C@H](C)NC(=O)[C@H](CO)NC(=O)[C@H](Cc3ccc(O)cc3)NC(=O)[C@H](CC(C)C)NC(=O)[C@@H](N)Cc3ccc(C(C)=NOCCNC(=O)[C@H](CCCCN)NC(=O)[C@H](CCCCN)NC(=O)[C@H](CO)NC(=O)CNC(=O)CNC(=O)[C@H](CO)NC(=O)CNC(=O)CNC(=O)[C@H](CCC(=O)O)NC(=O)[C@H](CCC(=O)O)NC(=O)CC[C@H](NC(=O)CCCCCCCCCCCCC(=O)O)C(=O)O)cc3)CSSC[C@H](NC(=O)CNC(=O)[C@H](C(C)C)NC(=O)[C@H](Cc3c[nH]cn3)NC2=O)C(=O)N[C@@H]([C@@H](C)O)C(=O)N[C@@H](CCCCN)C(=O)N[C@@H](CCCNC(=N)N)C(=O)N[C@@H](CO)C(=O)N[C@@H](CC(C)C)C(=O)N[C@@H](C)C(=O)N[C@@H](CCCNC(=N)N)C(=O)N[C@@H](Cc2ccccc2)C(=O)N[C@H](C(=O)O)CSSC[C@@H](C(=O)NCC(=O)N[C@@H](CCSC)C(=O)N[C@@H](CO)C(=O)N[C@H](C(=O)N[C@@H](Cc2c[nH]c3ccccc23)C(=O)N[C@@H](CO)C(=O)O)[C@@H](C)O)NC1=O [AQ1-KKSGGSGGEE-Glu^γ-C13-COOH]	–	0.676 µM·h	0.09 nM	0.16 nM
CC[C@H](C)[C@@H]1NC(=O)[C@H](C)NC(=O)[C@H]([C@@H](C)CC)NC(=O)[C@H](CCC(N)=O)NC(=O)[C@H](C)NC(=O)[C@H](CCCNC(=N)N)NC(=O)[C@H](C(C)C)NC(=O)[C@H](CC(C)C)NC(=O)[C@H](CCC(=O)O)NC(=O)[C@H](CCCNC(=N)N)NC(=O)CNC(=O)[C@@H](NC(=O)[C@H](CC(C)C)NC(=O)[C@H](CCCCN)NC(=O)[C@@H](NC(=O)[C@@H](NC(=O)[C@H](CCC(=O)O)NC(=O)[C@H](CCC(=O)O)NC(=O)[C@H](CCSC)NC(=O)[C@H](Cc2c[nH]c3ccccc23)NC(=O)[C@H](CO)NC(=O)[C@H](C)N)C(C)C)[C@@H](C)CC)CSSC[C@@H]2NC(=O)[C@@H](NC(=O)[C@H](CCCCN)NC(=O)[C@H](CC(N)=O)NC(=O)[C@H](C)NC(=O)[C@H](CC(C)C)NC(=O)[C@H](C)NC(=O)[C@H](CO)NC(=O)[C@H](Cc3ccc(O)cc3)NC(=O)[C@H](CC(C)C)NC(=O)[C@@H](N)Cc3ccc(C(C)=NOCCNC(=O)[C@H](CCCNC(=N)N)NC(=O)CNC(=O)CNC(=O)[C@H](CCC(=O)O)NC(=O)[C@H](CCC(=O)O)NC(=O)[C@H](CCCCN)NC(=O)[C@H](CCCCN)NC(=O)[C@H](CCCCN)NC(=O)[C@H](CCC(=O)O)NC(=O)[C@H](CCCCN)NC(=O)[C@H](CCC(=O)O)NC(=O)[C@H](CCCCN)NC(=O)CC[C@H](NC(=O)CCCCCCCCCCCCC(=O)O)C(=O)O)cc3)CSSC[C@H](NC(=O)CNC(=O)[C@H](C(C)C)NC(=O)[C@H](Cc3c[nH]cn3)NC2=O)C(=O)N[C@@H]([C@@H](C)O)C(=O)N[C@@H](CCCCN)C(=O)N[C@@H](CCCNC(=N)N)C(=O)N[C@@H](CO)C(=O)N[C@@H](CC(C)C)C(=O)N[C@@H](C)C(=O)N[C@@H](CCCNC(=N)N)C(=O)N[C@@H](Cc2ccccc2)C(=O)N[C@H](C(=O)O)CSSC[C@@H](C(=O)NCC(=O)N[C@@H](CCSC)C(=O)N[C@@H](CO)C(=O)N[C@H](C(=O)N[C@@H](Cc2c[nH]c3ccccc23)C(=O)N[C@@H](CO)C(=O)O)[C@@H](C)O)NC1=O [AQ1-RGGEEKKKEKEK-Glu^γ-C13-COOH]	0.29 nM	0.987 µM·h	0.1 nM	–
